From patent US20240092925A1 (NANJING IASO BIOTECHNOLOGY, published 2024)

T1: Recombinant biotinylated Human CD19 Protein-Fc (Kactus, CD2-HE121) (human, UniProt P15391 20-291, biotinylated (site not stated))
T1 construct: bought; also called CD19-Fc-Bio; Kactus-CD19-FC-Bio; not shown: Fc tag
T1 sequence (looked up): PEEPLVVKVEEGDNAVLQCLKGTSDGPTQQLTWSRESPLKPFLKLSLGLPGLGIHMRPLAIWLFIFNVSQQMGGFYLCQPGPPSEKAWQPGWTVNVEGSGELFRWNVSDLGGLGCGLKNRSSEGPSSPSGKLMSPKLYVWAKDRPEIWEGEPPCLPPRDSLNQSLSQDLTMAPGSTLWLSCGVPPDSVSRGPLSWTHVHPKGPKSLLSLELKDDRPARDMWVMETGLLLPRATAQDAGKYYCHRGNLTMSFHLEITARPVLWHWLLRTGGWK

B1: phage monoclonal clone #42 (single-domain antibody) (VHH)
VHH: EVQLLESGGGLVQPGGSLRLSCAASGFTFSHSAMGWVRQAPGKGLEWVSSIYARGGYTYYADSVKGRFTISRDNSKNTLYLQMNSLRAEDTAVYYCARGYHLEYMVSQDVWGQGTLVTVSS
B2: phage monoclonal clone #60 (single-domain antibody) (VHH)
VHH: QVQLVESGGGLVQPGGSLRLSCAASGFTFSSYEMNWVRQAPGKGLEWVSYISSSGSTIYYADSVKGRFTISRDNAKNSLYLQMNSLRAEDTAVYYCARVAQREGDVWGKGTTVTVSS
B3: phage monoclonal clone #61 (single-domain antibody) (VHH)
VHH: QVQLVQSGAEVKKPGSSVKVSCKASGGTFSNYAISWVRQAPGQGLEWMGWISAYNGDTKYAQRLQGRVTMTTDTSTSTAYMELRNLRSDDTAVYYCARYESMSGQDIWGQGTLVTVSS
B4: phage monoclonal clone #62 (single-domain antibody) (VHH)
VHH: QVQLVQSGAEVKKPGESLRISCKASGYSFSNHWIGWVRQKPGKGLEWMGSVYPGDSDTRYSPSFQGHVTVSADKSMNTAYLQWSSLKTSDTAMYYCARGGTIDGDYGGRQDFWGQGTMVTVSS

target: T2, Streptavidin (Pierce, 21125) (UniProt P22629 37-163, limits assumed); assay: phage ELISA
T2 construct: coated on the ELISA plate; non-related antigen; also called SA
T2 sequence (P22629 37-163 limits assumed): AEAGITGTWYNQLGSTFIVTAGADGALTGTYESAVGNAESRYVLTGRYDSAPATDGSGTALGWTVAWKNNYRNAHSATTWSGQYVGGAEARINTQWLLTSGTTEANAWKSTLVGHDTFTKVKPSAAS

Binder | binding result
B1 | no binding
B2 | no binding
B3 | no binding
B4 | no binding

target: T1, Recombinant biotinylated Human CD19 …; assay: phage ELISA

Binder | binding result
B1 | no binding
B2 | no binding
B3 | no binding
B4 | no binding

target: T3, Biotinylated Recombinant human BAFFR Protein (Kactus, BAF-HM40RB) (human, UniProt Q96RJ3 7-71, limits assumed, biotinylated (site not stated)); assay: phage ELISA
T3 construct: bought; also called Kactus-BAFFR-his-Bio; not shown: his tag
T3 sequence (Q96RJ3 7-71 limits assumed): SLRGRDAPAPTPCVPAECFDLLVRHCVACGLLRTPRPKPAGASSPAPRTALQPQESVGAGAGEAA

Binder | binding result
B1 | no binding
B2 | no binding
B3 | no binding
B4 | no binding
